Data published in patent US20240254222A1 (Bayer, published 2024).

Target: T1, Human Semaphorin3A-Fc (R&D Systems), TPP-13211 (human)
T1 construct: R&D Systems 1250-S3; also called recombinant human Sema3A-Fc chimera
Test: competition ELISA on coated TPP-13211, competitor biotinylated TPP-15374
Experimental: For screening in a competition ELISA setup, human Sema3a (TPP-13211) was coated onto 384-well plates (Greiner bio-one, 781077) with a concentration of 0.5 μg/ml in coating buffer (Carbonate-Basis pH 9.6, Candor 121125) over night at 10° C. After washing the plates 3 times with 50 μl PBS 0.05% Tween the plates were blocked with 50 μl Smart Block® (Candor 113500) for 1 h at 20° C. and washed again 3 times as described.
Subsequently, 20 μl of pre-mixed antibody solution was added to the plates and incubate for 18 h at 10° C. […] The total concentration of the added antibody solution was 0.25 μg/ml. During the incubation time the antibodies bound to the plates in a competitive manner as they compete for the same epitope on the human Sema3A protein.
After subsequent washing with 50 μl PBS 0.05% Tween for 3 times, 20 μl of a Streptavidin-HRP solution (R&D Systems, DY998, 1:200 in PBS 0.05% Tween 10% Smart Block) were added and incubated for 1 h and 20° C. followed by subsequent washing 3 times with 50 μl PBS 0.05% Tween and addition of 20 μl Amplex Red solution (Invitrogen A12222, 1:1000 in NaP-buffer 50 mM pH7.6 with 1:10000 of 30% H2O2). After a final incubation for 20 min at 20° C. the signal was determined using an emission wavelength of 595 nm and excitation of 530 nm.

T1 sequence (chain, as listed by the source limits assumed): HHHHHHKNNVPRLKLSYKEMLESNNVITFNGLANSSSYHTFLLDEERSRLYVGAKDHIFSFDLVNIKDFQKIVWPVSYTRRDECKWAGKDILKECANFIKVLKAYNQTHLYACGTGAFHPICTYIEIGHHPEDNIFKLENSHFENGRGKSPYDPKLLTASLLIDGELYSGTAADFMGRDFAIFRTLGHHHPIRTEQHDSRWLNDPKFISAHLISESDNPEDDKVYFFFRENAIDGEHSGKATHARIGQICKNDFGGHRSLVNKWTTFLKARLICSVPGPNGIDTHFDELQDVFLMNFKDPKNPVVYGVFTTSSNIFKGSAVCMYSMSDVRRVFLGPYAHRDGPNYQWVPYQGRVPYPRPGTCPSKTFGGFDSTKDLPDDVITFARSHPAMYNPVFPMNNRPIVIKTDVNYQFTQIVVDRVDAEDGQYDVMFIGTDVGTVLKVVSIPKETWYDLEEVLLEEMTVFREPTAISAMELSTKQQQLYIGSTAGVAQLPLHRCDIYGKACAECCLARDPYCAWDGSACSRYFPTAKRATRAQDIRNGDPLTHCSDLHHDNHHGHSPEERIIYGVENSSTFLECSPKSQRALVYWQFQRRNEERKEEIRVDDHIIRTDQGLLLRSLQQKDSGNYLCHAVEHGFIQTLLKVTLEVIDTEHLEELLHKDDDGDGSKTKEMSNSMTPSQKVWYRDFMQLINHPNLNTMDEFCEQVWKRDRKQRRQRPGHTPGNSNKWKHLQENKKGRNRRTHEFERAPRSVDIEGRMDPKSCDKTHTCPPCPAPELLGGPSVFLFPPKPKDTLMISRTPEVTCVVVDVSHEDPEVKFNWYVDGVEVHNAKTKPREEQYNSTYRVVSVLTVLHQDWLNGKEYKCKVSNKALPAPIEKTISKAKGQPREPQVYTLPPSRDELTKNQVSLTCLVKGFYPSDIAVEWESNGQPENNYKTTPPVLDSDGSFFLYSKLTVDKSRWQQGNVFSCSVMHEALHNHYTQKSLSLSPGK

B1: TPP-15374 (antibody, human IgG1, lambda, V domains shown)
VH: EVQLLESGGGLVQPGGSLRLSCAASGFTFSSYEMNWVRQAPGKGLEWVSGISWNSGSIGYADSVKGRFTISRDNSKNTLYLQMNSLRAEDTAVYYCARSGYSSSWFDPDFDYWGQGTLVTVSS
VL: QSVLTQPPSASGTPGQRVTISCTGSSSNIGAGYDVHWYQQLPGTAPKLLIYGNSNRPSGVPDRFSGSKSGTSASLAISGLRSEDEADYYCSSYAGSNPYVVFGGGTKLTVLG
notes: human IgG1; also called IgG1, hit from panning; parental mAb
VAL norm to TPP-9809 (1 to 1 ratio): 0.69 | VAL norm to TPP-9809 (1 to 5 ratio): 0.41
